According to patent US20140213529A1:

Target: CD22 (UniProt P20273)
Assay: cell-based or functional assay

Sequence of UniProt P20273 (P20273 20-847 limits assumed): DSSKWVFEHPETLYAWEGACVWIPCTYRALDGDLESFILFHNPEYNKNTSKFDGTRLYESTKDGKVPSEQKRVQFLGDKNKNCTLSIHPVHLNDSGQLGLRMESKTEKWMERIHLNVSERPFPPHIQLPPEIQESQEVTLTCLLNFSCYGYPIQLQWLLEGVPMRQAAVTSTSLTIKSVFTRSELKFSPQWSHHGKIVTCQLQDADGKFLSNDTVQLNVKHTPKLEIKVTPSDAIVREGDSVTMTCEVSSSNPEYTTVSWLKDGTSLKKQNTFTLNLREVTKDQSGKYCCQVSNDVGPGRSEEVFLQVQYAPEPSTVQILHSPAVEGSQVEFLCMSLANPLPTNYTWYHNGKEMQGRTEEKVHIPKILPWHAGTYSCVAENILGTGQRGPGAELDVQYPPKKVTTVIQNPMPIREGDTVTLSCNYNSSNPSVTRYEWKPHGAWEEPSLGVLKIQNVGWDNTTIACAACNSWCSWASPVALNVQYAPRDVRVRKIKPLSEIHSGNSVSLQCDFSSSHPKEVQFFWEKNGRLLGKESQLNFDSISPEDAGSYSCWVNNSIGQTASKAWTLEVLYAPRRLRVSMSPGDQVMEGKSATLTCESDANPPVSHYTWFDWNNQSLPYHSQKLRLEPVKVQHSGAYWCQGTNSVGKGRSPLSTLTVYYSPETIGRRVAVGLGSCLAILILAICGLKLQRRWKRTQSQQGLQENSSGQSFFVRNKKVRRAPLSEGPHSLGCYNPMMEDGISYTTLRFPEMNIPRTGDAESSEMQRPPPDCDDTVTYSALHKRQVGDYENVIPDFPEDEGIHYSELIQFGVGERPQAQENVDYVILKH

Work on HA22-LR yielded a cytotoxicity IC50 (ng/ml) on CA46 cells of 0.11 ng/mL, a cytotoxicity IC50 (ng/ml) on Daudi cells of 0.18 ng/mL and a cytotoxicity IC50 (ng/ml) on Raji cells of 0.41 ng/mL.
